Data taken from patent publication US20260242735A1 (UNIVERSIT T BASEL, published 2026).

B1: Refmab #5 (antibody, V domains shown)
VH: QVQLVQSGAEVKKPGASVKVSCKASGYTFTNYDINWVRQAPGQGLEWIGWIYPGDGSTKYNEKFKAKATLTADTSTSTAYMELRSLRSDDTAVYYCASGYEDAMDYWGQGTTVTVSS
VL: DIQMTQSPSSLSASVGDRVTINCKASQDINSYLSWFQQKPGKAPKTLIYRANRLVDGVPSRFSGSGSGQDYTLTISSLQPEDFATYYCLQYDEFPLTFGGGTKVEIK
notes: The alanine scan used IgG or Fab
B2: Refmab #6 (antibody, V domains shown)
VH: QVQLQQPGAEVVKPGASVKMSCKASGYTFTSYYIHWIKQTPGQGLEWVGVIYPGNDDISYNQKFQGKATLTADKSSTTAYMQLSSLTSEDSAVYYCAREVRLRYFDVWGQGTTVTVSS
VL: EIVLTQSPGSLAVSPGERVTMSCKSSQSVFFSSSQKNYLAWYQQIPGQSPRLLIYWASTRESGVPDRFTGSGSGTDFTLTISSVQPEDLAIYYCHQYLSSRTFGQGTKLEIK
notes: as for B1

Assays:
Assay in all cases: flow cytometry, HEK293-T, alanine scan;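 also: transiently transfected HEK293-T cells expressing single alanine mutants of human CD33 (alanine residues changed to serine), antibody binding fluorescence minus background, relative to wild type CD33, mean of duplicates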
human CD33 S342A = human CD33 S342A (human, UniProt P20138 18-364)
Method: (§1) An alanine scan on human CD33 was performed to the determine the residues on CD33 that are involved in binding to the antibodies investigated. […] Briefly, a mutation library of CD33 was created by high-throughput, site-directed mutagenesis. Each residue was individually mutated to alanine, with alanine codons mutated to serine. The mutant library was arrayed in 384-well microplates and transiently transfected into HEK293-T. Following transfection, cells were incubated with the indicated antibodies (IgG or Fab) at concentrations pre-determined using an independent immunofluorescence titration curve on wild type CD33. […] Binding of each antibody to each mutant clone was determined in duplicates. For each point, background fluorescence was subtracted from the raw data, which were then normalized to antibody reactivity with wild type CD33.
(§2) Critical residues for antibody binding (outlined in dark grey) were residues whose mutations led to a binding of the test Abs of less than 20%. Additional secondary residues (outlined in light grey) were identified that led to a binding of the test Abs of between 20 and 40% as compared to the wild type CD33.

human CD33 E321A = human CD33 E321A (human, UniProt P20138 18-364)
Method: as §1, §2

human CD33 S323A = human CD33 S323A (human, UniProt P20138 18-364)
Method: as §1, §2

human CD33 A306S = human CD33 A306S (human, UniProt P20138 18-364)
Method: as §1, §2

human CD33 A290S = human CD33 A290S (human, UniProt P20138 18-364)
Method: as §1, §2

human CD33 H300A = human CD33 H300A (human, UniProt P20138 18-364)
Method: as §1, §2

human CD33 I281A = human CD33 I281A (human, UniProt P20138 18-364)
Method: as §1, §2

human CD33 E337A = human CD33 E337A (human, UniProt P20138 18-364)
Method: as §1, §2

human CD33 D298A = human CD33 D298A (human, UniProt P20138 18-364)
Method: as §1, §2

human CD33 H310A = human CD33 H310A (human, UniProt P20138 18-364)
Method: as §1, §2

human CD33 A329S = human CD33 A329S (human, UniProt P20138 18-364)
Method: as §1, §2

human CD33 T292A = human CD33 T292A (human, UniProt P20138 18-364)
Method: as §1, §2

human CD33 K283A = human CD33 K283A (human, UniProt P20138 18-364)
Method: as §1, §2

human CD33 R287A = human CD33 R287A (human, UniProt P20138 18-364)
Method: as §1, §2

human CD33 M334A = human CD33 M334A (human, UniProt P20138 18-364)
Method: as §1, §2

human CD33 G327A = human CD33 G327A (human, UniProt P20138 18-364)
Method: as §1, §2

human CD33 P330A = human CD33 P330A (human, UniProt P20138 18-364)
Method: as §1, §2

human CD33 K309A = human CD33 K309A (human, UniProt P20138 18-364)
Method: as §1, §2

human CD33 E333A = human CD33 E333A (human, UniProt P20138 18-364)
Method: as §1, §2

human CD33 K312A = human CD33 K312A (human, UniProt P20138 18-364)
Method: as §1, §2

human CD33 F279A = human CD33 F279A (human, UniProt P20138 18-364)
Method: as §1, §2

human CD33 L277A = human CD33 L277A (human, UniProt P20138 18-364)
Method: as §1, §2

human CD33 F280A = human CD33 F280A (human, UniProt P20138 18-364)
Method: as §1, §2

human CD33 F345A = human CD33 F345A (human, UniProt P20138 18-364)
Method: as §1, §2

human CD33 A272S = human CD33 A272S (human, UniProt P20138 18-364)
Method: as §1, §2

human CD33 S305A = human CD33 S305A (human, UniProt P20138 18-364)
Method: as §1, §2

human CD33 N344A = human CD33 N344A (human, UniProt P20138 18-364)
Method: as §1, §2

human CD33 H317A = human CD33 H317A (human, UniProt P20138 18-364)
Method: as §1, §2

human CD33 G304A = human CD33 G304A (human, UniProt P20138 18-364)
Method: as §1, §2

human CD33 T303A = human CD33 T303A (human, UniProt P20138 18-364)
Method: as §1, §2

human CD33 P301A = human CD33 P301A (human, UniProt P20138 18-364)
Method: as §1, §2

human CD33 K313A = human CD33 K313A (human, UniProt P20138 18-364)
Method: as §1, §2

human CD33 S326A = human CD33 S326A (human, UniProt P20138 18-364)
Method: as §1, §2

human CD33 V294A = human CD33 V294A (human, UniProt P20138 18-364)
Method: as §1, §2

human CD33 R291A = human CD33 R291A (human, UniProt P20138 18-364)
Method: as §1, §2

human CD33 T331A = human CD33 T331A (human, UniProt P20138 18-364)
Method: as §1, §2

Chain of human CD33 H317A (P20138 18-364 H317A limits assumed): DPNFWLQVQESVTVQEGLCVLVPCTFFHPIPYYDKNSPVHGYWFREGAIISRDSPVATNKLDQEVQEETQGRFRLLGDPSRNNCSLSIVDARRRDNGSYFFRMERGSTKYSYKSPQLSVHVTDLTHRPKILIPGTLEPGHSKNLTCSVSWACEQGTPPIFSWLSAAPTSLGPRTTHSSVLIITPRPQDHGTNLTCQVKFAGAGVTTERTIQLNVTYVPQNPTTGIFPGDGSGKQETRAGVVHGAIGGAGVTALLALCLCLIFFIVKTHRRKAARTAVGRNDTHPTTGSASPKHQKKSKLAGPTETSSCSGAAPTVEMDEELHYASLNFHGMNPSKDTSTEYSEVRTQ
Chain of human CD33 K312A (P20138 18-364 K312A limits assumed): as the sequence (P20138 18-364 H317A limits assumed) above, with K295A, A300H counted along it
Chain of human CD33 S323A (P20138 18-364 S323A limits assumed): as the sequence (P20138 18-364 H317A limits assumed) above, with A300H, S306A counted along it
Chain of human CD33 R291A (P20138 18-364 R291A limits assumed): as the sequence (P20138 18-364 H317A limits assumed) above, with R274A, A300H counted along it
Chain of human CD33 M334A (P20138 18-364 M334A limits assumed): as the sequence (P20138 18-364 H317A limits assumed) above, with A300H, M317A counted along it
Chain of human CD33 R287A (P20138 18-364 R287A limits assumed): as the sequence (P20138 18-364 H317A limits assumed) above, with R270A, A300H counted along it
Chain of human CD33 N344A (P20138 18-364 N344A limits assumed): as the sequence (P20138 18-364 H317A limits assumed) above, with A300H, N327A counted along it
Chain of human CD33 P301A (P20138 18-364 P301A limits assumed): as the sequence (P20138 18-364 H317A limits assumed) above, with P284A, A300H counted along it
Chain of human CD33 S305A (P20138 18-364 S305A limits assumed): as the sequence (P20138 18-364 H317A limits assumed) above, with S288A, A300H counted along it
Chain of human CD33 K313A (P20138 18-364 K313A limits assumed): as the sequence (P20138 18-364 H317A limits assumed) above, with K296A, A300H counted along it
Chain of human CD33 K283A (P20138 18-364 K283A limits assumed): as the sequence (P20138 18-364 H317A limits assumed) above, with K266A, A300H counted along it
Chain of human CD33 H300A (P20138 18-364 H300A limits assumed): as the sequence (P20138 18-364 H317A limits assumed) above, with H283A, A300H counted along it
Chain of human CD33 F279A (P20138 18-364 F279A limits assumed): as the sequence (P20138 18-364 H317A limits assumed) above, with F262A, A300H counted along it
Chain of human CD33 T292A (P20138 18-364 T292A limits assumed): as the sequence (P20138 18-364 H317A limits assumed) above, with T275A, A300H counted along it

Row | Binder | Mean % WT Binding (human CD33 S342A) | Mean % WT Binding (human CD33 E321A) | Mean % WT Binding (human CD33 S323A) | Mean % WT Binding (human CD33 A306S) | Mean % WT Binding (human CD33 A290S) | Mean % WT Binding (human CD33 H300A) | Mean % WT Binding (human CD33 I281A) | Mean % WT Binding (human CD33 E337A) | Mean % WT Binding (human CD33 D298A) | Mean % WT Binding (human CD33 H310A) | Mean % WT Binding (human CD33 A329S) | Mean % WT Binding (human CD33 T292A) | Mean % WT Binding (human CD33 K283A) | Mean % WT Binding (human CD33 R287A) | Mean % WT Binding (human CD33 M334A) | Mean % WT Binding (human CD33 G327A) | Mean % WT Binding (human CD33 P330A) | Mean % WT Binding (human CD33 K309A) | Mean % WT Binding (human CD33 E333A) | Mean % WT Binding (human CD33 K312A) | other results
1 | B1 | 101 % WT binding | 96.2 % WT binding | 113 % WT binding | 88.5 % WT binding | 118 % WT binding | 92.8 % WT binding | 115 % WT binding | 114 % WT binding | 84.5 % WT binding | 91.3 % WT binding | 124 % WT binding | 85.1 % WT binding | 82.9 % WT binding | 97.1 % WT binding | 99.4 % WT binding | 98.7 % WT binding | 90.3 % WT binding | 85.7 % WT binding | 121 % WT binding | 94.7 % WT binding | Mean % WT Binding (human CD33 F279A): 100 % WT binding; Mean % WT Binding (human CD33 L277A): 89 % WT binding; Mean % WT Binding (human CD33 F280A): 124 % WT binding; Mean % WT Binding (human CD33 F345A): 86.4 % WT binding; Mean % WT Binding (human CD33 A272S): 110 % WT binding; Mean % WT Binding (human CD33 S305A): 103 % WT binding; Mean % WT Binding (human CD33 N344A): 87.9 % WT binding; Mean % WT Binding (human CD33 H317A): 71.9 % WT binding; Mean % WT Binding (human CD33 G304A): 79.1 % WT binding; Mean % WT Binding (human CD33 T303A): 82.4 % WT binding; Mean % WT Binding (human CD33 P301A): 90.1 % WT binding; Mean % WT Binding (human CD33 K313A): 118 % WT binding; Mean % WT Binding (human CD33 S326A): 107 % WT binding; Mean % WT Binding (human CD33 V294A): 84.6 % WT binding; Mean % WT Binding (human CD33 R291A): 103 % WT binding; Mean % WT Binding (human CD33 T331A): 88.1 % WT binding
2 | B2 | 102 % WT binding | 111 % WT binding | 106 % WT binding | 99.2 % WT binding | 108 % WT binding | 101 % WT binding | 104 % WT binding | 105 % WT binding | 106 % WT binding | 94.9 % WT binding | 92.8 % WT binding | 113 % WT binding | 88.6 % WT binding | 71.5 % WT binding | 107 % WT binding | 92.1 % WT binding | 97.9 % WT binding | 98.8 % WT binding | 98.7 % WT binding | 94.5 % WT binding | Mean % WT Binding (human CD33 F279A): 102 % WT binding; Mean % WT Binding (human CD33 L277A): 104 % WT binding; Mean % WT Binding (human CD33 F280A): 106 % WT binding; Mean % WT Binding (human CD33 F345A): 98.4 % WT binding; Mean % WT Binding (human CD33 A272S): 90.9 % WT binding; Mean % WT Binding (human CD33 S305A): 86.8 % WT binding; Mean % WT Binding (human CD33 N344A): 67.7 % WT binding; Mean % WT Binding (human CD33 H317A): 95.2 % WT binding; Mean % WT Binding (human CD33 G304A): 100 % WT binding; Mean % WT Binding (human CD33 T303A): 95.5 % WT binding; Mean % WT Binding (human CD33 P301A): 105 % WT binding; Mean % WT Binding (human CD33 K313A): 102 % WT binding; Mean % WT Binding (human CD33 S326A): 88.8 % WT binding; Mean % WT Binding (human CD33 V294A): 104 % WT binding; Mean % WT Binding (human CD33 R291A): 104 % WT binding; Mean % WT Binding (human CD33 T331A): 90.9 % WT binding
